Test results taken from patent US20250136709A1 (DEVELOPMENT CENTER FOR BIOTECHNOLOGY, published 2025).
Residue numbers refer to the chain shown, from its start. Read-outs that look alike come from different tables or passages of the source.

T1: human CD73 (human, UniProt P21589 27-549)
T1 construct: the antigen of the Biacore assay is only called human CD73 antigen; also called human CD73 antigen; Recombinant Human CD73-6xHis
T1 sequence: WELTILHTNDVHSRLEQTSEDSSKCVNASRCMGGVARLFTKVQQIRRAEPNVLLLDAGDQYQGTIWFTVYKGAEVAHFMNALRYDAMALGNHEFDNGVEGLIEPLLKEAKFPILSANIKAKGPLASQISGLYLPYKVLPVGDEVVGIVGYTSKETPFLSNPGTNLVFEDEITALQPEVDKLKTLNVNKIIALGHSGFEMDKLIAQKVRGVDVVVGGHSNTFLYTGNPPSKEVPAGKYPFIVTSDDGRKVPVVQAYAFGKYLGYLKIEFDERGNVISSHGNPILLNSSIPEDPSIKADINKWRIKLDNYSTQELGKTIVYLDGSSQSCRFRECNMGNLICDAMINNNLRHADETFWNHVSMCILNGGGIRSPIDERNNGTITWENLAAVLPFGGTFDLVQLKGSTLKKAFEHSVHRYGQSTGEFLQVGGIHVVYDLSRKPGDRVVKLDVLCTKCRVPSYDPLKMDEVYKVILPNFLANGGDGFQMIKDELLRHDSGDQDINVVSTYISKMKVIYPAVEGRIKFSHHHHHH

T2: human CD73 on cells (MDA-MB-231, Calu-1, KLM-1, human CD4+ T-cells) (human, UniProt P21589 27-549)
T2 sequence: T1 sequence

T3: mouse CD73 (mouse, UniProt Q61503 29-551, limits assumed)
T3 construct: Expressed in F293 cells and used in ELISA
T3 sequence (looked up): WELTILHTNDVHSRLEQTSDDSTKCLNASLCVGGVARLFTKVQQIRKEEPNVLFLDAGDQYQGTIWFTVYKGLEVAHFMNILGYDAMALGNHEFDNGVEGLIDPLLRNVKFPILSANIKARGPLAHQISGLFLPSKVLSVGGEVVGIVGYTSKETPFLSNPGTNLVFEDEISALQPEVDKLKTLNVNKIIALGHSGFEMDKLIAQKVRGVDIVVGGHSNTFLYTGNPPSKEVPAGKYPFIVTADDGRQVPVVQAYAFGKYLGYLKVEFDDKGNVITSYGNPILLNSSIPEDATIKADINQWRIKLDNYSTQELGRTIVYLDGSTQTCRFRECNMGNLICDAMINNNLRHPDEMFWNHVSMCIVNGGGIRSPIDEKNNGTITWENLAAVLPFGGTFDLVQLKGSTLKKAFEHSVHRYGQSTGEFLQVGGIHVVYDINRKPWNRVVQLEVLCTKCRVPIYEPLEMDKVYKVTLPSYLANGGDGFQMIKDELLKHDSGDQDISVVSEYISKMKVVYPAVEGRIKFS

T4: mCD73hF4 (human; mouse, UniProt Q61503 307-551, limits assumed)
T4 construct: Mouse-human domain swapping protein, expressed in F293 cells
T4 sequence: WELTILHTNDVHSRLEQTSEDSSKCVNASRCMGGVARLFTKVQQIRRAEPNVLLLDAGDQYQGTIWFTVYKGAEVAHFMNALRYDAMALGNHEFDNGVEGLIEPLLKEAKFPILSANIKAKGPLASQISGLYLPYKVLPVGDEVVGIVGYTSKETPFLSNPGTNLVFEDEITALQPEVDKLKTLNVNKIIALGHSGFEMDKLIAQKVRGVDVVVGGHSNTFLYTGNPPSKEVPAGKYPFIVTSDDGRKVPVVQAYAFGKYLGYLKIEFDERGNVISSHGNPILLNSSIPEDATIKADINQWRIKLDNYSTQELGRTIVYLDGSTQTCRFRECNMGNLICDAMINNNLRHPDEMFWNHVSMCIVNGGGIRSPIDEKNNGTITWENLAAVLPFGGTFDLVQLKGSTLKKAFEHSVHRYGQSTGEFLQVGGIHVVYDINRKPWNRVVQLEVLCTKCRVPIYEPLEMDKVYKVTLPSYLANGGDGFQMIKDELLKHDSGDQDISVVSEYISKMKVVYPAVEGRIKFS

B1: HuB10/HdB7 (antibody, V domains shown)
VH: QVQLVQSGAEVKKPGASVKVSCKASGYVFSSYWINWVRQAPGQGLEWMGQIYPGDGNTNYNRNFKGRVTLTADKSTSTAYMELSSLRSEDTAVYYCAGFADWGQGTLVTVSS
VL: DIQLTQSPSSLSASVGDRVTITCRASQDIGDSLIWLQQKPGKAPKRLIYATSSLDSGVPSRFSGSRSGTDYTLTISSLQPEDFATYYCQQYSGYPLTFGQGTKVEIK
notes: Humanized 10H5; also called HuVHB10/HdVLB7; humanized 10H5 derivative
B2: HuB9/HdB7 (antibody, V domains shown)
VH: B1 VH with V68A, Y95F
VL: B1 VL
notes: Humanized 10H5; also called HuVHB9/HdVLB7; humanized 10H5 derivative
B3: HuB10/HdB6 (antibody, V domains shown)
VH: B1 VH
VL: B1 VL with P44I, L78V
notes: Humanized 10H5; also called HuVHB10/HdVLB6; humanized 10H5 derivative
B4: Oleclumab (antibody, V domains shown)
VH: EVQLLESGGGLVQPGGSLRLSCAASGFTFSSYAYSWVRQAPGKGLEWVSAISGSGGRTYYADSVKGRFTISRDNSKNTLYLQMNSLRAEDTAVYYCARLGYGRVDEWGRGTLVTVSS
VL: QSVLTQPPSASGTPGQRVTISCSGSLSNIGRNPVNWYQQLPGTAPKLLIYLDNLRLSGVPDRFSGSKSGTSASLAISGLQSEDEADYYCATWDDSHPGWTFGGGTKLTVL
B5: 10H5-CDRH1N35A (antibody, V domains shown)
VH: QVKLQQSGAELVKPGASVKISCKASGYVFSSYWIAWVKQRPGKGLEWIGQIYPGDGNTNYNRNFKGKATLTADKSSSTAYMQLSSLTSEDSAVYFCAGFADWGQGTTVTVSS
VL: DIELTQSPSSLSASLGERVSLTCRASQDIGDSLIWLQQEPDGTIKRLIYATSSLDSGVPKRFSGSRSGTSYSLTISSVEAEDAATYYCQQYSGYPLTFGSGTKLEIK
notes: Alanine mutant of 10H5; printed '10H5-CDRHIN35A'; also called 10H5-CDRHIN35A
B6: 10H5-CDRH1W33A (antibody, V domains shown)
VH: B5 VH with W33A, A35N
VL: B5 VL
notes: Alanine mutant of 10H5
B7: 10H5-CDRL3Y91A (antibody, V domains shown)
VH: B5 VH with A35N
VL: B5 VL with Y91A
notes: Alanine mutant of 10H5
B8: 10H5-CDRH3F95A (antibody, V domains shown)
VH: B5 VH with A35N, F99A
VL: B5 VL
notes: Alanine mutant of 10H5

What was measured:
mCD73hF3 (mouse; human) = mCD73hF3 (mouse; human) (UniProt Q61503); test: ELISA, antibody titrated; panel mCD73 hF3
mCD73hF2 (mouse; human) = mCD73hF2 (mouse; human) (UniProt Q61503); test: ELISA, antibody titrated; panel mCD73 hF2
mCD73hF1 (mouse; human) [1] = target: mCD73hF1 (mouse; human) (UniProt Q61503); test: ELISA, antibody titrated; panel mCD73 hF1
mCD73hF1 (mouse; human) [2] = target: mCD73hF1 (mouse; human) (UniProt Q61503); test: ELISA, antibody titrated; right panel mCD73 hF1
human CD73 [3] = target: T1, human CD73; test: Biacore SPR
[4] = target: T2, human CD73 on cells (MDA-MB-231, …); test: cell-based or functional assay
human CD73 [5] = target: T1, human CD73; test: Biacore SPR; remark: listed apart in the source
human CD73 [6] = target: T1, human CD73; test: Biacore SPR; remark: listed apart in the source
human CD73 [7] = target: T1, human CD73; test: Biacore SPR; remark: listed apart in the source
mouse CD73 [8] = target: T3, mouse CD73; test: ELISA, antibody titrated; panel mCD73
mCD73hF4 = target: T4, mCD73hF4; test: ELISA, antibody titrated; panel mCD73 hF4
mouse CD73 [9] = target: T3, mouse CD73; test: ELISA, antibody titrated; left panel mCD73
From the text: The binding affinities of the above four mutated antibodies, 10H5 antibody, Oleclumab, and IgG to mouse CD73 and mouse CD73 hF1 were respectively analyzed by using ELISA assay.

[10] = target: human CD73 on cells (MDA-MB-231, Calu-1, KLM-1, human CD4+ T-cells) (human) (UniProt P21589); test: cell-based or functional assay

Row | Molecule | AMP concentration in supernatant by LC/MS, MDA-MB-231 cells, 400 µM AMP, 10 nM antibody, 6 hours [4] [µM] | AMP concentration in supernatant by LC/MS, MDA-MB-231 cells, 400 µM AMP, 10 nM antibody, 24 hours [4] [µM] | AMP consumption, Calu-1 cells, 10 nM antibody, 24 hrs [4] [%] | AMP consumption, MDA-MB-231 cells, 10 nM antibody, 6 hr [4] [%] | AMP consumption, MDA-MB-231 cells, 10 nM antibody, 24 h [4] [%] | CFSE left-shift level of CD3/CD28-activated CD4+ T-cells with 400 µM AMP, 10 nM antibody [4] [%] | Kd (human CD73 [5]) [nM] | binding result (mouse CD73 [9]) | further results
1 | Oleclumab (antibody) |  |  |  |  |  |  |  |  | EC50 (read off the curve) (mCD73hF3 (mouse; human)): 0.1 nM; EC50 (read off the curve) (mCD73hF2 (mouse; human)): 0.1 nM; EC50 (read off the curve) (mCD73hF1 (mouse; human) [1]): 0.1 nM; EC50 (read off the curve) (mCD73hF1 (mouse; human) [2]): 0.1 nM
2 | B1 | 331 | 287 | < 20 | < 10 | < 50 | 83.4 | 0.678 |  | koff (human CD73 [3]): 6.54e-05 s⁻¹; kon (human CD73 [3]): 96400 M⁻¹ s⁻¹
3 | B2 | 345 | 298 | < 20 | < 10 | < 50 | 83.5 | 0.623 |  | koff (human CD73 [6]): 6.36e-05 s⁻¹; kon (human CD73 [6]): 102000 M⁻¹ s⁻¹
4 | B3 | 336 | 286 | < 20 | < 10 | < 50 | 83.7 | 0.803 |  | koff (human CD73 [7]): 6.57e-05 s⁻¹; kon (human CD73 [7]): 81800 M⁻¹ s⁻¹
5 | B4 |  |  |  |  |  |  |  |  | EC50 (read off the curve) (mouse CD73 [8]): ~0.1 nM; EC50 (read off the curve) (mCD73hF4): ~0.1 nM; EC50 (read off the curve) (mouse CD73 [9]): ~0.1 nM; AMP concentration in supernatant by LC/MS, MDA-MB-231 cells, 400 µM AMP, 10 nM antibody, 6 hours [10]: 324 µM; AMP concentration in supernatant by LC/MS, MDA-MB-231 cells, 400 µM AMP, 10 nM antibody, 24 hours [10]: 147 µM; AMP consumption, Calu-1 cells, 10 nM antibody, 24 hrs [10]: > 90%; AMP consumption, MDA-MB-231 cells, 10 nM antibody, 6 hr [10]: < 20%; AMP consumption, MDA-MB-231 cells, 10 nM antibody, 24 h [10]: > 90%; CFSE left-shift level of CD3/CD28-activated CD4+ T-cells with 400 µM AMP, 10 nM antibody, 3 days [10]: 72.9%
6 | B5 |  |  |  |  |  |  |  | no binding (tested: about 5e-8 M) | 
7 | B6 |  |  |  |  |  |  |  | no binding (tested: about 5e-8 M) | 
8 | B7 |  |  |  |  |  |  |  | no binding (tested: about 5e-8 M) | 
9 | B8 |  |  |  |  |  |  |  | no binding (tested: about 5e-8 M) | 
